Test results taken from US20240092897A1 (SHANGHAI JMT BIO TECHNOLOGY, published 2024).

Key:
[1] = molecular target: T1, Human Siglec-15 overexpressed on HEK293T cells (HEK293T-hu-S15) (human, UniProt Q6ZMC9 20-328); assay: flow cytometry on HEK293T-hu-S15 cells, detection with anti-human IgG (Fc specific)-FITC, average fluorescence intensity
T1 construct: whole, on cells; also called HEK293T-hu-S15 cell line
T1 sequence (looked up): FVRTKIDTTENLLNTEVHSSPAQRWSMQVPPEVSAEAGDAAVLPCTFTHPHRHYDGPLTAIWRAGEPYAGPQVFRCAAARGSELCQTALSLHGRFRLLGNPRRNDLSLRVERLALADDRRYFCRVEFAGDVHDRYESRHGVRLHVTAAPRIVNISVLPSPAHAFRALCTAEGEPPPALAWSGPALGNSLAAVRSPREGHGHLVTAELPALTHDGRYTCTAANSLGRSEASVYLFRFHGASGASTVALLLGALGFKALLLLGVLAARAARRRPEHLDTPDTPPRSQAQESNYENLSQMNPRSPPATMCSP
Procedure: HEK293T cell line overexpressing Siglec-15 (HEK293T-hu-S15) was purchased from KYinno Biotechnology Co., Ltd (Beijing, China) under Catalog #KC-1314. Purified anti-Siglec-15 chimeric antibodies were diluted at a gradient of 100 nM and incubated with HEK293T-hu-S15 cells at 4° C. for 30 min. Flow cytometry was performed after addition of anti-human IgG (Fc specific)-FITC (cat. #F9512) and incubation for 30 min.

[2] = molecular target: T2, Human Siglec-15, His Tag (human Siglec-15 full-length extracellular domain linked with His tag) (human, UniProt Q6ZMC9 20-263); assay: Octet BLI epitope binning, Siglec-15 His on HIS1K sensor; competitor 21F6C6
T2 construct: Bought from ACROBiosystems; also called Siglec-15 protein; SG5-H52H3
T2 sequence: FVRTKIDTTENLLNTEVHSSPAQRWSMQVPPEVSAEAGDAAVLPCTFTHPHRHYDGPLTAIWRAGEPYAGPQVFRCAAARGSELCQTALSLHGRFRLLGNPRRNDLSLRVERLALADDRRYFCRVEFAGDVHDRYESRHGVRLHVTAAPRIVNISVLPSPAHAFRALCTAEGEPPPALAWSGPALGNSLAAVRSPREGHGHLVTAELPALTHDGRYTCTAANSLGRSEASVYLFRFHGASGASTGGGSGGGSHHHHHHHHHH
Procedure: (§1) Epitope binning assays were performed using the Octet RED96e (ForteBio) System for the antibodies tested. Human Siglec-15, His Tag (Cat. No. SG5-H52H3) (5 μg/mL) was captured by the HIS1K biosensor and bound to primary antibody (100 nM) for 180 s. Then, the Human Siglec-15, His Tag (antigen)-primary antibody was bound to secondary antibody (100 nM) on the biosensors for 90 s. Data analysis was performed using Octet RED96e (ForteBio) analysis software.

[3] = molecular target: T2, Human Siglec-15, His Tag (human …); assay: Octet BLI epitope binning, Siglec-15 His on HIS1K sensor; competitor 255C12B10
Procedure: as §1

[4] = molecular target: T2, Human Siglec-15, His Tag (human …); assay: Octet BLI epitope binning, Siglec-15 His on HIS1K sensor; competitor 124B11F6
Procedure: as §1

[5] = molecular target: T2, Human Siglec-15, His Tag (human …); assay: SPR Biacore 8K, antibody captured by anti-human Fc, Siglec-15 His as analyte
Procedure: Affinity analysis was performed using Biacore8K, and a CM5 chip immobilized with anti-human Fc antibody was used to capture the antibodies tested. The stock solutions of the antibodies to be tested were diluted to 5 μg/mL, and injected sequentially into the experimental channels at a flow rate of 10 μL/min at about 500 RU. The analyte was Human Siglec-15, His Tag (Cat. #SG5-H52H3), the diluted human Siglec-15 protein was injected sequentially into the experimental channels and the control channel at a flow rate of 30 μL/min and allowing for a binding time of 150 s and a dissociation time of 700 s. The KD value of each antibody was calculated using Biacore 8K analysis software.

[6] = molecular target: T2, Human Siglec-15, His Tag (human …); assay: Octet BLI epitope binning, Siglec-15 His on HIS1K sensor; competitor 174C11C9
Procedure: as §1

[7] = molecular target: T3, Cynomolgus Monkey Siglec-15 full-length extracellular domain linked with His tag (Cynomolgus Monkey); assay: ELISA, coated antigen
T3 construct: Bought from ACROBiosystems; also called SG5-052H6
T3 chain: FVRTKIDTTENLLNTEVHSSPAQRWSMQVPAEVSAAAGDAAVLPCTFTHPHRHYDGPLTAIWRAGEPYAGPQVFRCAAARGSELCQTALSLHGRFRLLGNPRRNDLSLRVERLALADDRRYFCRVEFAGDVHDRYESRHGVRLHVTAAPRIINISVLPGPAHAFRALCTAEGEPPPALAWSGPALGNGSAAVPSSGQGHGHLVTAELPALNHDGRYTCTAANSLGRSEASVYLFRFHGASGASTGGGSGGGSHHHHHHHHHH
Procedure: (§2) The variable regions from the antibodies produced by the hybridomas were combined with human IgG1 (N297A) constant regions to generate chimeric antibodies, named as 21F6C6, 75E1F2, 124B11F6, 174C11C9, and 255C12B10, respectively. Binding activity assays were performed on the chimeric antibodies using Siglec-15 proteins from different species, in which human, mouse and Cynomolgus Monkey Siglec-15 proteins were purchased from ACROBiosystems (Beijing, China). Antigen was coated at 0.5 μg/ml, and antibodies were diluted starting from 1 μg/ml and incubated with antigen. Horseradish peroxidase-labeled Anti-Human IgG antibody was used as the secondary antibody and OD₄₅₀ values were read after adding the substrate.

[8] = molecular target: T2, Human Siglec-15, His Tag (human …); assay: ELISA, coated antigen
Procedure: as §2

[9] = molecular target: T2, Human Siglec-15, His Tag (human …); assay: Octet BLI epitope binning, Siglec-15 His on HIS1K sensor; competitor 75E1F2
Procedure: as §1

[10] = molecular target: T4, Mouse Siglec-15 full-length extracellular domain linked with His tag (mouse); assay: ELISA, coated antigen
T4 construct: Bought from ACROBiosystems; also called SG5-M52H7
T4 chain: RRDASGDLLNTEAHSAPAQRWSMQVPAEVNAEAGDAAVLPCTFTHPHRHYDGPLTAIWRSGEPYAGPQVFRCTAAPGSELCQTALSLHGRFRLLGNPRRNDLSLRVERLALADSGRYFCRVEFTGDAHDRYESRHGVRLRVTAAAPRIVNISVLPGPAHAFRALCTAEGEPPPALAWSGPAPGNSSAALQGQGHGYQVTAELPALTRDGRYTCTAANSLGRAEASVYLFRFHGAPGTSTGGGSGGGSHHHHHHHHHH
Procedure: as §2

[11] = molecular target: T2, Human Siglec-15, His Tag (human …); assay: SPR Biacore, antibody captured by anti-human Fc on CM5, Siglec-15 protein as analyte

B1: 75E1F2 chimeric antibody (antibody, V domains shown)
VH: EVQLVESGGGSVKPGGSLKLSCAASGFTFSDYGMHWVRQAPEKGLEWITYISSGSSIIDYSDTVKGRFTISRDNAKDTLFLQMTSLRSEDTAIYYCVRREDHYAMDYWGQGTSVTVSS
VL: DIVMTQSHKFLSTSVGDRVSITCKASQDVYTAVAWFQQKPGQSPKLLFYSASYRFTGVPDRFNGSGSGTDFTLTITSMQAEDLAVYYCQQHYSTPWTFGGGTKLEIK
notes: Mouse variable regions combined with human IgG1 (N297A) constant regions
EC50 [1]: 1.88 nM | cross-competition score [2]: 23.3% | cross-competition score [3]: 69.2% | cross-competition score [4]: 25.6% | Kd [5]: 0.93 nM | koff [5]: 0.000782 s⁻¹ | kon [5]: 841000 M⁻¹ s⁻¹ | cross-competition score [6]: 23% | EC50 [7]: 0.0122 µg/mL | EC50 [8]: 0.0186 µg/mL

B2: 255C12B10 chimeric antibody (antibody, V domains shown)
VH: EVQLQQSGPELVKPGASVKMSCKASGYTFTGYNMNWVKQSHGKSLEWIGYINPNNGGTRYNQKFKGKATLTINKSSSTAYMELRSLTSEDSAVYYCARDYGIDYWGQGTTLTVSS
VL: EIQMTQSPSSMSASLGDRITITCQATQDIVKNLNWYQQKPGKPPSFLIYYATELAEGVPSRFSGSGSGSDYSLTISNLESEDFADYYCLQFYEFPYTFGGGTKLEIK
notes: as for B1
EC50 [1]: 3.77 nM | cross-competition score [2]: 20.4% | cross-competition score [9]: 11.4% | cross-competition score [4]: 18.9% | Kd [5]: 0.536 nM | koff [5]: 0.000158 s⁻¹ | kon [5]: 296000 M⁻¹ s⁻¹ | cross-competition score [6]: 18.3% | EC50 [7]: 0.00546 µg/mL | EC50 [8]: 0.00562 µg/mL | EC50 [10]: 0.0228 µg/mL

B3: 174C11C9 chimeric antibody (antibody, human IgG1, V domains shown)
VH: EVQLQQSGPVLVKPGASVKMSCEASGYIFTDYYMNWVKQSPGKSLEWIGVFNPYSGGISYNQKFKGKATLTVDTSSSTAYMELNSLTSEDSAVYYCARDYYYLSSHGFYALDYWGQGTSVTVSS
VL: DIVLTQSPASLAVSLGQRATISCRASESVDSYGNSFIHWYQQRPGRPPKLLMYRASNLESGIPARFSGSGSRTDFTLTIDPVEADDVATYYCQQSNEDPLTFGAGTKLELK
notes: also called 174C11C9-mHL
EC50 [1]: 1.59 nM | cross-competition score [2]: 7.68% | cross-competition score [9]: 4.2% | cross-competition score [3]: 52.4% | Kd [11]: 0.175 nM | koff [11]: 0.000305 s⁻¹ | kon [11]: 1.74e+06 M⁻¹ s⁻¹ | cross-competition score [4]: 73.4% | Kd [5]: 0.305 nM | koff [5]: 0.00037 s⁻¹ | kon [5]: 1.21e+06 M⁻¹ s⁻¹ | EC50 [7]: 0.00748 µg/mL | EC50 [8]: 0.00522 µg/mL | EC50 [10]: 0.00985 µg/mL

B4: 124B11F6 chimeric antibody (antibody, human IgG1, V domains shown)
VH: EVQLQQSGAELVRPGASVKLSCTASVFNIKDYYMHWVKQRTEQGLEWIGRIDPEDDKTKYAPKFQGKATITADTSSNTAYLHLSTLTSEDTAVYYCVRGWLGYIMDFWGQGTSVTVSS
VL: QLVLTQSSSASFSLGASAKLTCTLSSQHSTYTIDWYQQQPLKPPKYVMELKEDGSHSTGDGIPDRFSGSSSGADRYLGISNIQPEDEAVYICGVGATIKEQFVYVFGGGTKVTVL
notes: also called 124B11F6-mHL
EC50 [1]: 9.44 nM | cross-competition score [2]: 108% | cross-competition score [9]: 22.7% | cross-competition score [3]: 44.9% | Kd [11]: 0.0834 nM | koff [11]: 0.000114 s⁻¹ | kon [11]: 1.37e+06 M⁻¹ s⁻¹ | Kd [5]: 0.00143 nM | koff [5]: 1.46e-07 s⁻¹ | kon [5]: 102000 M⁻¹ s⁻¹ | cross-competition score [6]: 79.5% | EC50 [7]: 0.016 µg/mL | EC50 [8]: 0.0216 µg/mL | EC50 [10]: 0.0212 µg/mL
